From the supplement of paper PMC7877785
± gives the uncertainty stated by the source.

Experiment: self-splicing fitness, log relative to wild type (ln ratio); higher = more splicing; Tetrahymena group I intron in knt gene, E. coli kanamycin selection, DiMSum; sequences stand for … in CUCUCU…GGAGGGAAAAGUUAUCAGGCAUGCACCUGGUAGCUAGUCUUUAAACCAAUAGAUUGCAUCGGUUUAAAAGGCAAGACCGUCAAAUUGCGGGAAAGGGGUCAACAGCCGUUCAGUACCAAGUCUCAGGGGAAACUUUGAGAUGGCCUUGCAAAGGGUAUGGUAAUAAGCUGACGGACAUGGUCCUAACCACGCAGCCAAGUCCUAAGUCAACAGAUCUUCUGUUGAUAUGGAUGCAGUUCACAGACUAAAUGUCGGUCGGGGAAGAUGUAUUCUUCUCAUAAGAUAUAGUCGGACCUCUCCUUAAUGGGAGCUAGCGGAUGAAGUGAUGCAACACUGGAGCCGCUGGGAACUAAUUUGUAUGCGAAAGUAUAUUGAUUAGUUUUGGAGUACUCGUGGUCG
Summary of the method: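 Library with all eight P1ex-region intron nucleotides randomised, intron inside the knt kanamycin-resistance gene on pET-22b(+), in E. coli BL21(DE3). Cells grew overnight at 37°C or 30°C on LB agar with or without 25 μg/mL kanamycin (plus 100 μg/mL carbenicillin, 50 μM IPTG, 0.2% rhamnose), in six replicate transformations. Pooled colonies were amplicon-sequenced on Illumina HiSeq 2500. DiMSum fitness is the error-weighted combination of wild-type-normalised replicate fold changes, kanamycin versus none.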

Sequence | self-splicing fitness (ln) (30 °C) | self-splicing fitness (ln) (37 °C)
CGCUAGCAAUAUUACGCACG | -2.53 ± 0.17 | -2.06 ± 0.24
GAUAAGCAAUAUUACGUCCU | -0.907 ± 0.14 | -0.0126 ± 0.19
GAUCAGCAAUAUUACGAUCG | -1.17 ± 0.096 | 0.0523 ± 0.13
AUGGAGCAAUAUUACGAUUC | -2.21 ± 0.3 | 
ACAUAGCAAUAUUACGUGCA | -0.639 ± 0.053 | 0.349 ± 0.063
ACAAAGCAAUAUUACGUUUA | -3.55 ± 0.13 | -0.482 ± 0.088
GAUUAGCAAUAUUACGGUGU | -2.74 ± 0.09 | -0.798 ± 0.083
CGGAAGCAAUAUUACGCCGG | -0.726 ± 0.15 | 0.698 ± 0.19
GACAAGCAAUAUUACGUCAU | -3.05 ± 0.15 | -2.62 ± 0.16
UCACAGCAAUAUUACGGCAA | -1.38 ± 0.1 | -1.42 ± 0.097
AAGGAGCAAUAUUACGAAGA | -3.41 ± 0.29 | -3.13 ± 0.37
GGUAAGCAAUAUUACGUGGC | -2.67 ± 0.15 | -1.29 ± 0.16
AGGUAGCAAUAUUACGGAAA | -2.92 ± 0.033 | -1.96 ± 0.039
AUGCAGCAAUAUUACGUGGA | -3.1 ± 0.29 | -1.73 ± 0.18
CCUCAGCAAUAUUACGAGGC |  | -2.19 ± 0.31
CUCGAGCAAUAUUACGAGCA | -4.04 ± 0.42 | -2.09 ± 0.27
UUUCAGCAAUAUUACGUUGC | -4.04 ± 0.29 | -2.5 ± 0.24
CUACAGCAAUAUUACGAUAC | -3.74 ± 0.19 | -2.58 ± 0.18
ACCAAGCAAUAUUACGGAAU | -3.05 ± 0.11 | -1.15 ± 0.096
UACAAGCAAUAUUACGCUAC | -3.76 ± 0.29 | -2.26 ± 0.21

Sequence | self-splicing fitness (ln) (30 °C) | self-splicing fitness (ln) (37 °C)
GUCCAGCAAUAUUACGCAUC | -0.179 ± 0.089 | 0.142 ± 0.12
GCGUAGCAAUAUUACGACCA | -1.52 ± 0.17 | -0.255 ± 0.16
GAAUAGCAAUAUUACGAGGU | -4 ± 0.36 | -2.61 ± 0.24
UGGAAGCAAUAUUACGUUGC | -4.13 ± 0.47 | -3.11 ± 0.4
GGCAAGCAAUAUUACGCAUC | -0.644 ± 0.078 | -0.532 ± 0.1
GGUCAGCAAUAUUACGUCGU | 0.302 ± 0.08 | 0.488 ± 0.082
GAAAAGCAAUAUUACGGUCA | -0.479 ± 0.067 | 0.0562 ± 0.073
GGGUAGCAAUAUUACGAGAG | -3.56 ± 0.28 | -2.26 ± 0.2
AGAAAGCAAUAUUACGUUCG | -0.631 ± 0.07 | 0.484 ± 0.092
UGUUAGCAAUAUUACGUUCC | -2.47 ± 0.29 | -2.03 ± 0.41
UGUCAGCAAUAUUACGAGCC | -1.74 ± 0.24 | -0.631 ± 0.27
CCCGAGCAAUAUUACGGGCA | -3.2 ± 0.23 | -2.66 ± 0.23
GAAAAGCAAUAUUACGUCAA | -2.62 ± 0.19 | -1.11 ± 0.14
GUGGAGCAAUAUUACGAAGA |  | -2.05 ± 0.49
CCCGAGCAAUAUUACGCGGC | -3.67 ± 0.4 | -1.88 ± 0.29
GUAAAGCAAUAUUACGAUGU | -0.534 ± 0.081 | -0.0801 ± 0.1
CGGGAGCAAUAUUACGGGAA |  | -1.85 ± 0.41
UCUAAGCAAUAUUACGAGGG | -3.29 ± 0.47 | -2.61 ± 0.27
AUCCAGCAAUAUUACGCUGG | -3.65 ± 0.19 | -1.7 ± 0.16
